Experimental data published in patent publication US20100105875A1 (published 2010).

Tests used:
[1] = target: T1, fHbp of N. meningitidis strain MC58 (full-length mature factor H binding protein) (Neisseria meningitidis strain MC58, UniProt E6MV22 20-274); assay: western blot on cell extracts; FACS on bacteria
T1 construct: also called MC58 fHbp; protein 741
T1 sequence: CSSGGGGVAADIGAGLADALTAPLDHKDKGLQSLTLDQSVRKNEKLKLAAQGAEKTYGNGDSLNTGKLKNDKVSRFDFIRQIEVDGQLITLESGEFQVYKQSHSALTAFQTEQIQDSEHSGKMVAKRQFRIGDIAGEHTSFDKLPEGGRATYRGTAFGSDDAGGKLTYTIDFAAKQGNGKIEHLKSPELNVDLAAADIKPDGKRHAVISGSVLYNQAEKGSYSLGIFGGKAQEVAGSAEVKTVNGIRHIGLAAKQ

[2] = target: T2, recombinant fHbp from MC58 with Arg204 changed to histidine (Neisseria meningitidis strain MC58, UniProt E6MV22 27-274); assay: western blot of site-directed mutant of recombinant MC58 fHbp
T2 construct: also called Arg204→His mutant
T2 sequence: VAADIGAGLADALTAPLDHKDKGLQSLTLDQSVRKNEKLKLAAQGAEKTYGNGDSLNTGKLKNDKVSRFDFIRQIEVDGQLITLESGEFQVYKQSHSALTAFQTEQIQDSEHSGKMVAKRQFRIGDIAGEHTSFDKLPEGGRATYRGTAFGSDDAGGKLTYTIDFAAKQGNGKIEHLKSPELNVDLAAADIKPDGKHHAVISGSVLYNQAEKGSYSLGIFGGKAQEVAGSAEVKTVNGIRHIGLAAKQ

B1: MAb502 (antibody, V domains shown)
VH: EVQLQESGPGLAKPSQTLSLTCSVTGYSITSDFWNWIRKFPGNKLEYMGYISYSGSTDYNPSLKSRISITRDTSKNQYYLQLNSVTAEDTATYYCARYFGSSYAMDHWGQGTSVTVSS
VL: DIQMTQSPASLSASVGETVTITCRASGNIHNYLAWYQQKQGKSPQLLVYTAKTLAEGVPSRFSGSGSGTQFSLKINSLQPEDFGSYYCQHFWSTPWTFGGGTKLEIKR
notes: also called monoclonal anti-fHbp antibody MAb502
B1: binds [1]; no binding [2].
